We go through one molecule from paper PMC8379094 (Cell Reports, 2021).

Assay [1] concerns the target SARS-CoV-2 spike receptor binding domain, wild type, recombinant (Severe acute respiratory syndrome …, UniProt P0DTC2). The assay is described as follows: BLI. (Biolayer interferometry detects binding as a change in optical thickness at a sensor tip.)
Assay [2] concerns the target SARS-CoV-2 spike S1 subunit, wild type, recombinant (SARS-CoV-2, WT (QHD43416, Wuhan-Hu-1), UniProt P0DTC2). Kind of assay: BLI.

B1: BL6 mAb (antibody, V domains shown)
VH: EVQLVESGGGLVQPGRSLRLSCEVSGFTFEDYDMQWVRQAPGKGLEWVSGISWNGGIIGYGDSVKGRFTISRDNAKNSLYLQMNSLRGEDTALYSCAKALHSGDDSGQQAFDIWGQGTMVTVSS
VL: SYVLTQPPSVSVAPGQTAKITCGENNIGRRSVHWYQQKPGQAPVLVIFNDSDRPSGIPERFSGSMSGNTATLTISRVEAGDEADYYCQVWDSGSDHVVFGGGTELTVL
B1: the binding result in assay [1] and in assay [2] was “binds” in each case.
